Experimental findings from US20190374662A1 (published 2019) are described below.

B1: CEACAM1-Ig fusion protein (extracellular portion of CEACAM1 fused to the Fc portion of human IgG1) (Fc fusion)
chain: QLTTESMPFNVAEGKEVLLLVHNLPQQLFGYSWYKGERVDGNRQIVGYAIGTQQATPGPANSGRETIYPNASLLIQNVTQNDTGFYTLQVIKSDLVNEEATGQFHVYP
notes: also called CCM1-Ig; soluble CEACAM1-Ig; not shown: Fc portion of human IgG1

Holding throughout (assay): flow cytometry on stably transfected 721.221 cells
For test [1], the target named is T1, CEACAM6 protein on 721.221 cells (human, UniProt P40199 35-142).
T1 construct: also called CD66c
T1 sequence: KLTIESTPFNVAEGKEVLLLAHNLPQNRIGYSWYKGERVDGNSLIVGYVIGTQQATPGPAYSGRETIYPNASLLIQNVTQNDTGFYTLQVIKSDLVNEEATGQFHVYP

Test [2] addresses B1.
Test [3] addresses T2, CD99-Ig fusion protein (control) (human, UniProt P14209 23-122, limits assumed).
T2 construct: extracellular domain; Control fusion protein produced in COS-7 cells; not shown: human IgG1 (Fc portion)
T2 sequence (looked up): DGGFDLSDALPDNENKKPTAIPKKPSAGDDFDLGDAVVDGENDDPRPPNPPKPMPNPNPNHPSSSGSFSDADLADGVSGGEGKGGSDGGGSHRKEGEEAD

Take B1: the binding result in test [1] is given as “no binding”.

B2: CCM6-L44Q (CEACAM6 with 44L changed to 44Q) (receptor)
chain: KLTIESTPFNVAEGKEVLLLAHNLPQNRIGYSWYKGERVDGNSQIVGYVIGTQQATPGPAYSGRETIYPNASLLIQNVTQNDTGFYTLQVIKSDLVNEEATGQFHVYP
notes: also called CEACAM6-L44Q
On to B2, for which the binding result in test [2] was “no binding”.

B3: CCM1-RQ43,44SL (CEACAM1 with S and L at positions 43 and 44 instead of R and Q) (receptor)
chain: QLTTESMPFNVAEGKEVLLLVHNLPQQLFGYSWYKGERVDGNSLIVGYAIGTQQATPGPANSGRETIYPNASLLIQNVTQNDTGFYTLQVIKSDLVNEEATGQFHVYP
notes: also called CEACAM1-RQ43,44SL
With B3, the binding result in test [2] and in test [3] was “no binding” throughout.

B4: CCM6-SL43,44RQ (CEACAM6 with R and Q at positions 43 and 44 instead of S and L) (receptor)
chain: KLTIESTPFNVAEGKEVLLLAHNLPQNRIGYSWYKGERVDGNRQIVGYVIGTQQATPGPAYSGRETIYPNASLLIQNVTQNDTGFYTLQVIKSDLVNEEATGQFHVYP
notes: also called CEACAM6-SL43,44RQ
For the molecule B4, the binding result in test [3] is “no binding”.

B5: CCM6-S43R (CEACAM6 with 43S changed to 43R) (receptor)
chain: KLTIESTPFNVAEGKEVLLLAHNLPQNRIGYSWYKGERVDGNRLIVGYVIGTQQATPGPAYSGRETIYPNASLLIQNVTQNDTGFYTLQVIKSDLVNEEATGQFHVYP
notes: also called CEACAM6-S43R
Regarding B5, in test [2], the binding result is “no binding”.

B6: CCM1-R43A (CEACAM1 with 43R changed to 43A) (receptor)
chain: QLTTESMPFNVAEGKEVLLLVHNLPQQLFGYSWYKGERVDGNAQIVGYAIGTQQATPGPANSGRETIYPNASLLIQNVTQNDTGFYTLQVIKSDLVNEEATGQFHVYP
notes: The expression level was lower than that of the other transfectants; also called CEACAM1-R43A
For the molecule B6, the binding result in test [2] is on record as “no binding”.

B7: CCM1-Q44L (CEACAM1 with 44Q changed to 44L) (receptor)
chain: QLTTESMPFNVAEGKEVLLLVHNLPQQLFGYSWYKGERVDGNRLIVGYAIGTQQATPGPANSGRETIYPNASLLIQNVTQNDTGFYTLQVIKSDLVNEEATGQFHVYP
notes: also called CEACAM1-Q44L
In the case of B7, in test [2], the binding result is given as “no binding”.
